First the molecules themselves.
B1: regulatory subdomain of Escherichia coli MutL (domain or fragment, UniProt P23367 466-569, looked up)
chain: WLRQAQLTPGEAPVCAQPLLIPLRLKVSAEEKSALEKAQSALAELGIDFQSDAQHVTIRAVPLPLRQQNLQILIPELIGYLAKQSVFEPGNIAQWIARNLMSEH
B2: C-terminal domain of Escherichia coli MutL (domain or fragment, UniProt P23367 432-615, looked up)
chain: SQSFGRVLTIVHSDCALLERDGNISLLSLPVAERWLRQAQLTPGEAPVCAQPLLIPLRLKVSAEEKSALEKAQSALAELGIDFQSDAQHVTIRAVPLPLRQQNLQILIPELIGYLAKQSVFEPGNIAQWIARNLMSEHAQWSMAQAITLLADVERLCPQLVKTPPGGLLQSVDLHPAIKALKDE
B3: Bacillus subtilis β sliding clamp (β subunit of DNA polymerase III) (natural protein, UniProt P05649 1-378, looked up)
chain: MKFTIQKDRLVESVQDVLKAVSSRTTIPILTGIKIVASDDGVSFTGSDSDISIESFIPKEEGDKEIVTIEQPGSIVLQARFFSEIVKKLPMATVEIEVQNQYLTIIRSGKAEFNLNGLDADEYPHLPQIEEHHAIQIPTDLLKNLIRQTVFAVSTSETRPILTGVNWKVEQSELLCTATDSHRLALRKAKLDIPEDRSYNVVIPGKSLTELSKILDDNQELVDIVITETQVLFKAKNVLFFSRLLDGNYPDTTSLIPQDSKTEIIVNTKEFLQAIDRASLLAREGRNNVVKLSAKPAESIEISSNSPEIGKVVEAIVADQIEGEELNISFSPKYMLDALKVLEGAEIRVSFTGAMRPFLIRTPNDETIVQLILPVRTY
B4: C-terminal (endonuclease) domain of Bacillus subtilis MutL (domain or fragment, UniProt P49850 433-627, looked up)
chain: SDRVPIMYPIGQMHGTYILAQNENGLYIIDQHAAQERIKYEYFREKVGEVEPEVQEMIVPLTFHYSTNEALIIEQHKQELESVGVFLESFGSNSYIVRCHPAWFPKGEEAELIEEIIQQVLDSKNIDIKKLREEAAIMMSCKGSIKANRHLRNDEIKALLDDLRSTSDPFTCPHGRPIIIHHSTYEMEKMFKRVM
B5: regulatory subdomain of Bacillus subtilis MutL (domain or fragment, UniProt P49850 471-574, looked up)
chain: KYEYFREKVGEVEPEVQEMIVPLTFHYSTNEALIIEQHKQELESVGVFLESFGSNSYIVRCHPAWFPKGEEAELIEEIIQQVLDSKNIDIKKLREEAAIMMSCK

What all share (experiment): cross-linking
Data set [1] deals with Escherichia coli β sliding clamp (β subunit of DNA polymerase III) (Escherichia coli, UniProt P0A988 1-366).
Data set [2] deals with B3.
The data set “cross-linking” concerns the molecule itself.

One may read the stoichiometry N as a count of units in the complex or per binding partner.

Bounds are passed on as bounds.

Escherichia coli β sliding clamp (β subunit of DNA polymerase III), sequence (P0A988 whole entry): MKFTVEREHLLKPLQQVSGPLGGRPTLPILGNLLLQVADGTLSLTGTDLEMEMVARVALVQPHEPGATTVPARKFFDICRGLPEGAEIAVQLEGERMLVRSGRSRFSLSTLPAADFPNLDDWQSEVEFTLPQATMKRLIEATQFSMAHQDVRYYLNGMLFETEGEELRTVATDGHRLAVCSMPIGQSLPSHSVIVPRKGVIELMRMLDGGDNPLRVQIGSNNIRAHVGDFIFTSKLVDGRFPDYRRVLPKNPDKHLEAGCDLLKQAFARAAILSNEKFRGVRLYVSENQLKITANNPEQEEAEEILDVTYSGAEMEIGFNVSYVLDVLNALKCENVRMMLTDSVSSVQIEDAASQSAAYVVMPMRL

On to B1, for which the binding result in data set [1] is given as “binds”.
B2: the binding result in data set [2] is “binds”. Also, the “stoichiometry N” value in the data set “cross-linking” is at least 2.
For the molecule B3, the “stoichiometry N” value in the data set “cross-linking” was 2.
Take B4: the binding result in data set [1] is reported as “binds”. The “stoichiometry N” value in “cross-linking” was 2.
On to B5, for which the binding result in data set [2] is “binds”.
